According to paper PMC5921052:

Target: Hsp90 yeast homologue (Hsc82) (yeast) (UniProt P15108)
Chain of UniProt P15108 (P15108 whole entry): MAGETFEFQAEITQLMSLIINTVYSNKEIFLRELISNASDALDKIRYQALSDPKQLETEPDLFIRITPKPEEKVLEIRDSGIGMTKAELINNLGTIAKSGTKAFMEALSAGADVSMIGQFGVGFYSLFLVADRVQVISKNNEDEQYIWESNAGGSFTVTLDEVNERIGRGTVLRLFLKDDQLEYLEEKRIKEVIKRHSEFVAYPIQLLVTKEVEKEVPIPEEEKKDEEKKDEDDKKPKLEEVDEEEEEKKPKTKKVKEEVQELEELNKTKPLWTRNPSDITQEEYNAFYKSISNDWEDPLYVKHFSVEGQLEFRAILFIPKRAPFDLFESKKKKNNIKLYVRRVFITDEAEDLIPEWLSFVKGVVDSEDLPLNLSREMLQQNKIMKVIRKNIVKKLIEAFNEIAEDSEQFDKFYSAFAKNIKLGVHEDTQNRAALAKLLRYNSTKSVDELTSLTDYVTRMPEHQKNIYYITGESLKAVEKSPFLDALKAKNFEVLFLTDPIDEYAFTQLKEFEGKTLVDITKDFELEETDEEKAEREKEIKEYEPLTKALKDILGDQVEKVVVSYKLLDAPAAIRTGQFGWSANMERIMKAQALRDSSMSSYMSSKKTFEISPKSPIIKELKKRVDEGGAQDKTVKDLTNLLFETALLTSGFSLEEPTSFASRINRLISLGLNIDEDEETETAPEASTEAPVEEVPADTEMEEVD

With “model client protein Δ131Δ (domain or fragment)” the other was 1.8 fold.
